From paper PMC12049449, “EXO1 promotes the meiotic MLH1-MLH3 endonuclease through conserved interactions with MLH1, MSH4 and DNA” (Nature Communications, 2025)
Blank lines part the entries; values can stand above or below the molecule they belong to.

Legend:
[1] = molecular target: EXO1-FLAG, full length, as printed for Fig. 3h and Fig. 6d (UniProt Q9UQ84); test: pull-down (anti-FLAG immobilised EXO1-FLAG, Western blot quantification); conditions: n = 3 independent experiments, parent: est. 1.0, read off a plot
[2] = molecular target: T1, EXO1-FLAG, full length, for Fig. 3h and Fig. 6d, Q9UQ84; test: as above; conditions: chain shown with the change; n = 3 independent experiments; p < 0.0001 vs WT; parent: est. 1.0; read off a plot
T1 chain: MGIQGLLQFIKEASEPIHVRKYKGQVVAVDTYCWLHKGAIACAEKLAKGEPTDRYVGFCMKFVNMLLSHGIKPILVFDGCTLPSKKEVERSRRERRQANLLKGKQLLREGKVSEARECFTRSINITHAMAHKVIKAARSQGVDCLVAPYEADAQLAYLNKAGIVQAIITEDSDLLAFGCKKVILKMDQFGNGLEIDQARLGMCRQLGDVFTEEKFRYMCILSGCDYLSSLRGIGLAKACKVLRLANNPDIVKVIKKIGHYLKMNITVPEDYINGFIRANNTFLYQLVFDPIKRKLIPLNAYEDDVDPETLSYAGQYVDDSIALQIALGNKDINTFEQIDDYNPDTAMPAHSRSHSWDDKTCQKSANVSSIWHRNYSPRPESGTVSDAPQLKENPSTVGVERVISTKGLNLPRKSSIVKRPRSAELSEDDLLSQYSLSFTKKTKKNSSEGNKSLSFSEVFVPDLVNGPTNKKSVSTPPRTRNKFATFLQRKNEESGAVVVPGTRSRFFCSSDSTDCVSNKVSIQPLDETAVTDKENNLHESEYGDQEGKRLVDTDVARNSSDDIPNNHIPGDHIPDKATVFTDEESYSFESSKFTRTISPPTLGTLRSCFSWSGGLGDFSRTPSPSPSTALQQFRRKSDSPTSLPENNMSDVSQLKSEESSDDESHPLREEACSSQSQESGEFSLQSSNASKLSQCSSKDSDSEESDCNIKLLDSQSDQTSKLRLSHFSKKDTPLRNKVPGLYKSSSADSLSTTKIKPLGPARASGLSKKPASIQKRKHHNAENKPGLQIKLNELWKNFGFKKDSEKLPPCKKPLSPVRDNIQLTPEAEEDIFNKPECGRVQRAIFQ

Human MutLγ (MLH1-MLH3) = molecular target: T2, Human MutLγ (MLH1-MLH3) (human, UniProt P40692 1-756; Q9UHC1 1-1453); test: pull-down; MutLγ (bait, 1 μg) held by anti-MLH1 antibody on protein G magnetic beads; EXO1-FLAG variants (prey, 1 μg) added; 25 mM Tris-HCl pH 7.5, 3 mM EDTA, 1 mM DTT, 20 μg/ml BSA, 50 mM NaCl, 4 °C, 1 h; washes with 100 mM NaCl, 0.05% Triton X-100; Western blot; conditions: both partners purified
T2 construct: MLH1, human, from pFB-FLAG-hMLH1co; MLH3, human, from pFB-His-MBP-hMLH3co; The methods say that the MBP tag was cleaved with PreScission protease; also called FLAG-MLH1 and MBP-MLH3; FLAG-MLH1-MBP-MLH3; source: Sf9, purified (amylose resin, M2 anti-FLAG resin); not shown: FLAG, N-terminal, kept; MBP, N-terminal, kept

Molecule: Human MutSγ (MSH4-MSH5) (from UniProt O15457;O43196) MSH4:F225E
ratio to parent ([1]; p = 0.22 vs WT): 0.66 arb. units

Molecule: Human MutSγ (MSH4-MSH5) (from UniProt O15457;O43196) MSH4:F225E; MSH4:F288E
ratio to parent ([1]; p = 0.005 vs WT): 0.2 arb. units

Molecule: Human MutSγ (MSH4-MSH5) (from UniProt O15457;O43196) MSH4:F288E
ratio to parent ([1]; p = 0.19 vs WT): 0.73 arb. units

B2: Nuclease-deficient human EXO1 (D173A)-FLAG, full length (enzyme, UniProt Q9UQ84 1-846, looked up)
chain: MGIQGLLQFIKEASEPIHVRKYKGQVVAVDTYCWLHKGAIACAEKLAKGEPTDRYVGFCMKFVNMLLSHGIKPILVFDGCTLPSKKEVERSRRERRQANLLKGKQLLREGKVSEARECFTRSINITHAMAHKVIKAARSQGVDCLVAPYEADAQLAYLNKAGIVQAIITEDSALLAFGCKKVILKMDQFGNGLEIDQARLGMCRQLGDVFTEEKFRYMCILSGCDYLSSLRGIGLAKACKVLRLANNPDIVKVIKKIGHYLKMNITVPEDYINGFIRANNTFLYQLVFDPIKRKLIPLNAYEDDVDPETLSYAGQYVDDSIALQIALGNKDINTFEQIDDYNPDTAMPAHSRSHSWDDKTCQKSANVSSIWHRNYSPRPESGTVSDAPQLKENPSTVGVERVISTKGLNLPRKSSIVKRPRSAELSEDDLLSQYSLSFTKKTKKNSSEGNKSLSFSEVFVPDLVNGPTNKKSVSTPPRTRNKFATFLQRKNEESGAVVVPGTRSRFFCSSDSTDCVSNKVSIQPLDETAVTDKENNLHESEYGDQEGKRLVDTDVARNSSDDIPNNHIPGDHIPDKATVFTDEESYSFESSKFTRTISPPTLGTLRSCFSWSGGLGDFSRTPSPSPSTALQQFRRKSDSPTSLPENNMSDVSQLKSEESSDDESHPLREEACSSQSQESGEFSLQSSNASKLSQCSSKDSDSEESDCNIKLLDSQSDQTSKLRLSHFSKKDTPLRNKVPGLYKSSSADSLSTTKIKPLGPARASGLSKKPASIQKRKHHNAENKPGLQIKLNELWKNFGFKKDSEKLPPCKKPLSPVRDNIQLTPEAEEDIFNKPECGRVQRAIFQ
notes: EXO1, human, from pFB-MBP-PP-EXO1(D173A)-1xFLAG; last residue at position 846; also called nuclease-dead EXO1 (D173A); source: Sf9, purified (amylose resin, PreScission cleavage, FLAG M2 resin); not shown: MBP, N-terminal, cleaved; FLAG, C-terminal, kept
binding result (Human MutLγ (MLH1-MLH3)): binds

The next lines start with the values.

ratio to parent [2]: 0.08 arb. units
B1: Human MutSγ (MSH4-MSH5), O15457;O43196 MSH4:T238E; MSH4:Y244D; MSH4:F288E (protein)
chain 1: MLRPEISSTSPSAPAVSPSSGETRSPQGPRYNFGLQETPQSRPSVQVVSASTCPGTSGAAGDRSSSSSSLPCPAPNSRPAQGSYFGNKRAYAENTVASNFTFGASSSSARDTNYPQTLKTPLSTGNPQRSGYKSWTPQVGYSASSSSAISAHSPSVIVAVVEGRGLARGEIGMASIDLKNPQIILSQFADNTTYAKVITKLKILSPLEIIMSNTACAVGNSTKLFTLITENFKNVNFETIQRKDFNETKGLEYIEQLCIAEFSTVLMEVQSKYYCLAAVAALLKYVEEIQNSVYAPKSLKICFQGSEQTAMIDSSSAQNLELLINNQDYRNNHTLFGVLNYTKTPGGSRRLRSNILEPLVDIETINMRLDCVQELLQDEELFFGLQSVISRFLDTEQLLSVLVQIPKQDTVNAAESKITNLIYLKHTLELVDPLKIAMKNCNTPLLRAYYGSLEDKRFGIILEKIKTVINDDARYMKGCLNMRTQKCYAVRSNINEFLDIARRTYTEIVDDIAGMISQLGEKYSLPLRTSFSSARGFFIQMTTDCIALPSDQLPSEFIKISKVKNSYSFTSADLIKMNERCQESLREIYHMTYMIVCKLLSEIYEHIHCLYKLSDTVSMLDMLLSFAHACTLSDYVRPEFTDTLAIKQGWHPILEKISAEKPIANNTYVTEGSNFLIITGPNMSGKSTYLKQIALCQIMAQIGSYVPAEYSSFRIAKQIFTRISTDDDIETNSSTFMKEMKEIAYILHNANDKSLILIDELGRGTNTEEGIGICYAVCEYLLSLKAFTLFATHFLELCHIDALYPNVENMHFEVQHVKNTSRNKEAILYTYKLSKGLTEEKNYGLKAAEVSSLPPSIVLDAKEITTQITRQILQNQRSTPEMERQRAVYHLATRLVQTARNSQLDPDSLRIYLSNLKKKYKEDFPRTEQVPEKTEE
chain 2: MASLGANPRRTPQGPRPGAASSGFPSPAPVPGPREAEEEEVEEEEELAEIHLCVLWNSGYLGIAYYDTSDSTIHFMPDAPDHESLKLLQRVLDEINPQSVVTSAKQDENMTRFLGKLASQEHREPKRPEIIFLPSVDFGLEISKQRLLSGNYSFIPDAMTATEKILFLSSIIPFDCLLTVRALGGLLKFLGRRRIGVELEDYNVSVPILGFKKFMLTHLVNIDQDTYSVLQIFKSESHPSVYKVASGLKEGLSLFGILNRCHCKWGEKLLRLWFTRPTHDLGELSSRLDVIQFFLLPQNLDMAQMLHRLLGHIKNVPLILKRMKLSHTKVSDWQVLYKTVYSALGLRDACRSLPQSIQLFRDIAQEFSDDLHHIASLIGKVVDFEGSLAENRFTVLPNIDPEIDEKKRRLMGLPSFLTEVARKELENLDSRIPSCSVIYIPLIGFLLSIPRLPSMVEASDFEINGLDFMFLSEEKLHYRSARTKELDALLGDLHCEIRDQETLLMYQLQCQVLARAAVLTRVLDLASRLDVLLALASAARDYGYSRPRYSPQVLGVRIQNGRHPLMELCARTFVPNSTECGGDKGRVKVITGPNSSGKSIYLKQVGLITFMALVGSFVPAEEAEIGAVDAIFTRIHSCESISLGLSTFMIDLNQVAKAVNNATAQSLVLIDEFGKGTNTVDGLALLAAVLRHWLARGPTCPHIFVATNFLSLVQLQLLPQGPLVQYLTMETCEDGNDLVFFYQVCEGVAKASHASHTAAQAGLPDKLVARGKEVSDLIRSGKPIKPVKDLLKKNQMENCQTLVDKFMKLDLEDPNLDLNVFMSQEVLPAATSIL

binding result (Human MutLγ (MLH1-MLH3)): binds
B3: EXO1 (D173A I403E)-FLAG (enzyme, human, UniProt Q9UQ84 1-846, looked up)
chain: MGIQGLLQFIKEASEPIHVRKYKGQVVAVDTYCWLHKGAIACAEKLAKGEPTDRYVGFCMKFVNMLLSHGIKPILVFDGCTLPSKKEVERSRRERRQANLLKGKQLLREGKVSEARECFTRSINITHAMAHKVIKAARSQGVDCLVAPYEADAQLAYLNKAGIVQAIITEDSALLAFGCKKVILKMDQFGNGLEIDQARLGMCRQLGDVFTEEKFRYMCILSGCDYLSSLRGIGLAKACKVLRLANNPDIVKVIKKIGHYLKMNITVPEDYINGFIRANNTFLYQLVFDPIKRKLIPLNAYEDDVDPETLSYAGQYVDDSIALQIALGNKDINTFEQIDDYNPDTAMPAHSRSHSWDDKTCQKSANVSSIWHRNYSPRPESGTVSDAPQLKENPSTVGVERVESTKGLNLPRKSSIVKRPRSAELSEDDLLSQYSLSFTKKTKKNSSEGNKSLSFSEVFVPDLVNGPTNKKSVSTPPRTRNKFATFLQRKNEESGAVVVPGTRSRFFCSSDSTDCVSNKVSIQPLDETAVTDKENNLHESEYGDQEGKRLVDTDVARNSSDDIPNNHIPGDHIPDKATVFTDEESYSFESSKFTRTISPPTLGTLRSCFSWSGGLGDFSRTPSPSPSTALQQFRRKSDSPTSLPENNMSDVSQLKSEESSDDESHPLREEACSSQSQESGEFSLQSSNASKLSQCSSKDSDSEESDCNIKLLDSQSDQTSKLRLSHFSKKDTPLRNKVPGLYKSSSADSLSTTKIKPLGPARASGLSKKPASIQKRKHHNAENKPGLQIKLNELWKNFGFKKDSEKLPPCKKPLSPVRDNIQLTPEAEEDIFNKPECGRVQRAIFQ
notes: EXO1, human, derivative of pFB-MBP-PP-EXO1(D173A)-1xFLAG; also called EXO1 (I403E); source: Sf9, purified (amylose resin, PreScission cleavage, FLAG M2 resin); not shown: MBP, N-terminal, cleaved; FLAG, C-terminal, kept

binding result (Human MutLγ (MLH1-MLH3)): binds
B4: EXO1 (D173A MIP)-FLAG (F506A and F507A in the MIP motif) (enzyme, human, UniProt Q9UQ84 1-846, looked up)
chain: MGIQGLLQFIKEASEPIHVRKYKGQVVAVDTYCWLHKGAIACAEKLAKGEPTDRYVGFCMKFVNMLLSHGIKPILVFDGCTLPSKKEVERSRRERRQANLLKGKQLLREGKVSEARECFTRSINITHAMAHKVIKAARSQGVDCLVAPYEADAQLAYLNKAGIVQAIITEDSALLAFGCKKVILKMDQFGNGLEIDQARLGMCRQLGDVFTEEKFRYMCILSGCDYLSSLRGIGLAKACKVLRLANNPDIVKVIKKIGHYLKMNITVPEDYINGFIRANNTFLYQLVFDPIKRKLIPLNAYEDDVDPETLSYAGQYVDDSIALQIALGNKDINTFEQIDDYNPDTAMPAHSRSHSWDDKTCQKSANVSSIWHRNYSPRPESGTVSDAPQLKENPSTVGVERVISTKGLNLPRKSSIVKRPRSAELSEDDLLSQYSLSFTKKTKKNSSEGNKSLSFSEVFVPDLVNGPTNKKSVSTPPRTRNKFATFLQRKNEESGAVVVPGTRSRAACSSDSTDCVSNKVSIQPLDETAVTDKENNLHESEYGDQEGKRLVDTDVARNSSDDIPNNHIPGDHIPDKATVFTDEESYSFESSKFTRTISPPTLGTLRSCFSWSGGLGDFSRTPSPSPSTALQQFRRKSDSPTSLPENNMSDVSQLKSEESSDDESHPLREEACSSQSQESGEFSLQSSNASKLSQCSSKDSDSEESDCNIKLLDSQSDQTSKLRLSHFSKKDTPLRNKVPGLYKSSSADSLSTTKIKPLGPARASGLSKKPASIQKRKHHNAENKPGLQIKLNELWKNFGFKKDSEKLPPCKKPLSPVRDNIQLTPEAEEDIFNKPECGRVQRAIFQ
notes: EXO1, human, derivative of pFB-MBP-PP-EXO1(D173A)-1xFLAG; also called EXO1 MIP mutants; MIP mutations; source: Sf9, purified (amylose resin, PreScission cleavage, FLAG M2 resin); not shown: MBP, N-terminal, cleaved; FLAG, C-terminal, kept
